The values that follow come from publication PMC13495755 (Journal of the American Chemical Society, 2026).

What is called Kd is the constant that tells how readily two partners part at equilibrium. A higher Kd goes with weaker binding. A word on the IC50: it is the midpoint of a concentration-inhibition curve.

Assay [1] concerns the target BCL-xL (UniProt Q07817). Kind of assay: fluorescence polarisation; direct FA titration of the labeled BID peptide with BCL-xL or MCL-1.
For assay [2], the target named is MCL-1 (UniProt Q07820). The assay is described as above.
The target of assay [3] is T1, BCL-xL (1-26 + 81-198).
T1 construct: BCL-xL, first stretch of the loop-deleted construct; BCL-xL, second stretch; Loop between the two stretches deleted; no linker; source: E. coli BL21 DE3, purified (His-trap, SUMO tag removed with His-Ulp1, reverse His-trap, Superdex 75); not shown: His6, N-terminal, cleaved; SUMO, N-terminal, cleaved
T1 chain: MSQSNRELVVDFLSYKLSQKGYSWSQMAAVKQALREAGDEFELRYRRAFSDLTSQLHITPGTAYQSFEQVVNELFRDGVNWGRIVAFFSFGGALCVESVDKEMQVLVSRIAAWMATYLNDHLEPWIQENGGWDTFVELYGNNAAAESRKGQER
Kind of assay: fluorescence polarisation; competitive fluorescence anisotropy; target protein (BCL-xL or MCL-1) fixed at 150 nM, FAM-BID tracer fixed at 25 nM, competitor protein titrated in; FA buffer 20 mM Tris, 150 mM NaCl pH 7.4, 1 mM DTT, 0.01% triton x100 (legends: 20 mM Tris-HCl, 150 mM NaCl, pH 7.5); triplicate; logistic fit. The note with it: both partners purified. Background: In fluorescence polarisation assays a small probe gives low polarisation when free and higher when bound to something large.

The target in assay [4] is T2, MCL-1 (172-327).
T2 construct: MCL-1 residues 172-327 as labelled; source: E. coli BL21 DE3, purified (His-trap, SUMO tag removed with His-Ulp1, reverse His-trap, Superdex 75); not shown: His6, N-terminal, cleaved; SUMO, N-terminal, cleaved
T2 chain: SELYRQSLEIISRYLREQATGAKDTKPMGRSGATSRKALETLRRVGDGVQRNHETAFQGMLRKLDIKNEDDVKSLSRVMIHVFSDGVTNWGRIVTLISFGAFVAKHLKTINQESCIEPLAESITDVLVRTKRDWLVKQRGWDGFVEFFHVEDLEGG
The description is as above. Particulars: both partners purified.

Assay [5] addresses T3, KLHL20 (303-605).
T3 sequence (Q9Y2M5 303-605, species assumed, looked up): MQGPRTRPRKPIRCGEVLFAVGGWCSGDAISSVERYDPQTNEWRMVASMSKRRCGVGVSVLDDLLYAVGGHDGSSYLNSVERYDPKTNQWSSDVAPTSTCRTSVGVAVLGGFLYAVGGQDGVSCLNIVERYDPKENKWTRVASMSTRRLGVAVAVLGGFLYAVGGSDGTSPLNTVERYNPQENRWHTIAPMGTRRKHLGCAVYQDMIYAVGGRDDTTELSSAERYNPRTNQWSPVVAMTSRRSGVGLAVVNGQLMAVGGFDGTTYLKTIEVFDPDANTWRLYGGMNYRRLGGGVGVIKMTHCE
The assay is described as follows: fluorescence polarisation; direct titration of the FAM-labelled tracer peptide with the target protein; FA buffer 20 mM Tris, 150 mM NaCl pH 7.4, 1 mM DTT, 0.01% triton x100.

The target of assay [6] is T4, Kelch-like protein 20 (KLHL20) (UniProt Q9Y2M5 1-609).
T4 construct: Kelch-like protein 20 (KLHL20), E3 ubiquitin ligase adapter; The functional rows use this molecule for KLHL20 of HEK293 cells; also called E3 ligase adapter
T4 sequence (looked up): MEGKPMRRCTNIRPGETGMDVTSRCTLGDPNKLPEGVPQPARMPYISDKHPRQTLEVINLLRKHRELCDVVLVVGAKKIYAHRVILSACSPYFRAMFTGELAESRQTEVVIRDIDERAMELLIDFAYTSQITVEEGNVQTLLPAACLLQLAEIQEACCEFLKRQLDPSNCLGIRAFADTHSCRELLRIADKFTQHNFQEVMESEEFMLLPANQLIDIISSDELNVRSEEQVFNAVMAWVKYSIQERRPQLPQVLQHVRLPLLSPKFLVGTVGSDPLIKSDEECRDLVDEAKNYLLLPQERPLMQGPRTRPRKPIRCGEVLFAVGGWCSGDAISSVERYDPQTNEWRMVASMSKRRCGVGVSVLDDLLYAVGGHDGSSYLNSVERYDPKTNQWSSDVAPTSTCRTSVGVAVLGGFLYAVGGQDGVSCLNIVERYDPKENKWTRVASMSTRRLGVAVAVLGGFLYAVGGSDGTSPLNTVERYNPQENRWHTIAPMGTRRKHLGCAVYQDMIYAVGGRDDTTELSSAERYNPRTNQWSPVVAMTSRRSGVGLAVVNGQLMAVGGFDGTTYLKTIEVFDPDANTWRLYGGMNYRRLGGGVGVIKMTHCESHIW
The assay is described as follows: fluorescence polarisation; direct FA titration of the tracer with KLHL20. The note with it: both partners purified.

The star is where a group is joined. 5FAM = O=C1OC2(c3ccc(O)cc3Oc3cc(O)ccc32)c2ccc(C(=O)*)cc21; Ahx = NCCCCCC(=O)O

Chain of MCL-1 (Q07820 whole entry): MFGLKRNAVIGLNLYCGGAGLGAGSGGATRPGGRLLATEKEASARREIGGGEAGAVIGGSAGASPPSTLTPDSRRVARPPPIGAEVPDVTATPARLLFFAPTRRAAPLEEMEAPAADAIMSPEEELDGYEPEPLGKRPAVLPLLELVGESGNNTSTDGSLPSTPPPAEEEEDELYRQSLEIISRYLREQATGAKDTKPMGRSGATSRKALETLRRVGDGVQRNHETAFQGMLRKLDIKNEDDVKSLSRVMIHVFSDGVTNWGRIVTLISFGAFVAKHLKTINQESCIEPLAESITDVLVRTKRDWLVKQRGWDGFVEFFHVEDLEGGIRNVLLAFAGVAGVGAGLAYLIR

As to “BID, natural effector peptide, labeled competitor peptide”, the Kd in assay [1] was determined as 71 nM; in assay [2] it was 21.5 nM.

B1: Sc-apCC-2-BCL-xL-11 (designed binder)
chain: SHMGPELAALQAERDALEARLAELDREIAALEWRIPSDPRKKQLIGELLRLFGDRFDLERRIAELDAKIEALKNG
notes: de novo helix-loop-helix design against BCL-xL (Strategy 3, pAE); source: E. coli BL21 DE3, purified (His-trap, TEV cleavage, reverse His-trap, Superdex 75); not shown: His6, N-terminal, cleaved
For B1, the IC50 in assay [3] worked out at 197 ± 10 nM; in assay [4] it was 500 ± 150 nM.

B2: FAM-DAPK1 (peptide)
peptide: {5FAM-Ahx}-LGLPDLVAK-NH2
SMILES: CC(C)C[C@H](NC(=O)CCCCCNC(=O)c1ccc2c(c1)C(=O)OC21c2ccc(O)cc2Oc2cc(O)ccc21)C(=O)NCC(=O)N[C@@H](CC(C)C)C(=O)N1CCC[C@H]1C(=O)N[C@@H](CC(=O)O)C(=O)N[C@@H](CC(C)C)C(=O)N[C@H](C(=O)N[C@@H](C)C(=O)N[C@@H](CCCCN)C(N)=O)C(C)C
In assay [5], B2 yielded a dissociation constant Kd of 12.2 µM.

B3: Sc-apCC-2-BCL-xL-12 (designed binder)
chain: SHMGPELERLEERRRELERELEELDREIAELEWTIKSDPRKKELIVKLRQLFGRRLRLMGDIFDLDVQIRRLREG
Take B3: the values for the IC50 in assay [3] and in assay [4] were 212 ± 18 nM and 270 ± 20 nM, respectively.

B4: tracer of the competitive FA-binding assay for KLHL20 (peptide)
chain: {FAM-Ahx}-LGLPDLVAK-NH2
B4 showed a Kd in assay [6] of 12 µM.
